The record followed here is publication PMC7667037.

Common to all, as to conditions: EMSA: 1 nM probe, 1 mM Tris-HCl pH 7.5, 0.1 mM EDTA, 0.2 mM DTT, 5 mM MgCl2, 10 mM KCl, 20 min 37 C; PhoP with 0.1 M acetyl phosphate; footprinting DNase I …
On the technique in general: Mobility shift assays separate free from complexed probe on a gel.

In series [1] the target is T1, PhoP (Escherichia coli O157:H7 (EHEC; strain EDL933?)) (UniProt Q8X738).
T1 sequence: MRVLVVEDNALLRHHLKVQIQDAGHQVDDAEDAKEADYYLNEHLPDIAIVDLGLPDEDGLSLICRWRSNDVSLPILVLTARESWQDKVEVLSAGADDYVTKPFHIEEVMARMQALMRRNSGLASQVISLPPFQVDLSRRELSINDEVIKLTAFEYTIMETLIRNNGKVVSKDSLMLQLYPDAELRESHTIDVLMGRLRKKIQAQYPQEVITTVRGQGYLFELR
Kind of series: EMSA.

Series [2] deals with T2, LmiA (Z4267) (Escherichia coli O157:H7 (EHEC; strain EDL933?)), ORF:92023632.
T2 sequence: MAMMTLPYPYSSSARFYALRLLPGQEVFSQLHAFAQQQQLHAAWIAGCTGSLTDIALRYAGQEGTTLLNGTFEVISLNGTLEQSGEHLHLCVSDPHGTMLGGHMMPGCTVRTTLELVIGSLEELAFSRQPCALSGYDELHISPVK
Kind of series: EMSA.

Series [3] concerns the target T1, PhoP (Escherichia coli O157:H7 (EHEC; strain EDL933?)). Kind of series: competition.

With “AATATGGGTAGGGCAATGTCATCATTGGAGTACTCCGAAACTCGGACGTATTACGGATAATATCGACGCTGCATCAGTCATATTCTGATATAAGTCAGGGTTTGTGACGGCACAACGAAAAGATTTTGCTACGCTTATTCGTGATTCTGCAAAGTGGAATAAATTCCACAGGGGCGGGGCTGAGTTGGTGACGAGGGTCAGATAATTGTTTTCTTTGACTGGAC (double strand) [PlmiA-2]”, the binding result in series [1] is recorded as “no binding”. For “AGATTCATCTGCAGGCTCTGAAGTAAGTATACGTGTGAATATTATTGCTTGAAAAAGCGTATTGGATAATATATACAGTATATGTACTTTATGTACATTGCAACTATTTAAATAATATAATAGTTGCCTATGGGATAATTTGGTTATTTATAACCAGGTAAATGTCTAAATTAGACAAAAGGAGAAAGATCAATGGAAGCAGCAAATTTAAGTCCTTCTGGTGCAGTAATG (double strand) [PLEE2/3]”, the binding entry in series [2] is listed as “no binding”. Still for that read-out and setting: to “CATTAGCCATTGGAAACTCACGTAATCATTAATTATGAATATTCCATTAAATAGTACTGTACAACAGCTTCCTTTCTACTCTATTCTTAGACGATGTAAGTTCACCATATTTTTTCTCATTGTTCAACCACCAGGATGAATAAAATTTAAAAATGTTATCCTCATATAAAATAAAACTTCTCAATGGTGCGATGCG (double strand) [PLEE4]” belongs “no binding”.

Take “GTCCAGTCAAAGAAAACAATTATCTCAGCCCCGCCCCTGTGGAATTTATTCCACTTTGCAGAATCACGAATAAGCGTAGCAAAATCTTTTCGTTGTGCCGTCACAAACCCTGACTTATATCAGAATATGACTGATGCAGCGTCGATATTATCCGTAATACGTCCGAGTTTCGGAGTACTCCAATGATGACATTGCCCTACCCATATT (double strand) [PlmiA-1]”: in series [1], the binding entry is recorded as “no binding”. Consider “GTCCAGTCAAAGAAAACAATTATCTGACTTACGTCACGTTTTCAGCCCCGCCCCTGTGGAATTTATTCCACTTTGCAGAATCACGAATAAGCGTAGCAAAATCTTTTCGTTGTGCCGTCACAAACCCTGACTTATATCAGAATATGACTGATGCAGCGTCGATATTATCCGTAATACGTCCGAGTTTCGGAGTACTCCAATGATGACATTGCCCTACCCATATT (double strand) [PlmiA unlabeled competitor]”, for which, in series [3], the binding entry is listed as “binds”. Turning to “GTCCAGTCAAAGAAAACAATTATCTGACTTACGTCACGTTTTCAGCCCCGCCCCTGTGGAATTTATTCCACTTTGCAGAATCACGAATAAGCGTAGCAAAATCTTTTCGTTGTGCCGTCACAAACCCTGACTTATATCAGAATATGACTGATGCAGCGTCGATATTATCCGTAATACGTCCGAGTTTCGGAGTACTCCAATGATGACATTGCCCTACCCATATT (double strand) [PlmiA]”, the binding entry in series [1] was “binds”.
